For the assay, the target named is T1, BSA (Bos taurus, UniProt P02769).
T1 construct: BSA (serum albumin), used as negative control protein; also called control protein
Briefly: SPR; scFv-Cys3 (50 µg/mL) immobilised directly on a gold chip by thiol-gold, blocked with PEG-thiol; OjaMT (5-30 µg/mL) or BSA (30 µg/mL) flowed at 10 µL/min for 10 min, PBS wash; PBS, room temperature; portable MiCo SPR nano. Conditions: both partners purified. In general terms: Surface plasmon resonance follows binding to a sensor surface in real time, without labels.

T1 sequence (P02769 25-607): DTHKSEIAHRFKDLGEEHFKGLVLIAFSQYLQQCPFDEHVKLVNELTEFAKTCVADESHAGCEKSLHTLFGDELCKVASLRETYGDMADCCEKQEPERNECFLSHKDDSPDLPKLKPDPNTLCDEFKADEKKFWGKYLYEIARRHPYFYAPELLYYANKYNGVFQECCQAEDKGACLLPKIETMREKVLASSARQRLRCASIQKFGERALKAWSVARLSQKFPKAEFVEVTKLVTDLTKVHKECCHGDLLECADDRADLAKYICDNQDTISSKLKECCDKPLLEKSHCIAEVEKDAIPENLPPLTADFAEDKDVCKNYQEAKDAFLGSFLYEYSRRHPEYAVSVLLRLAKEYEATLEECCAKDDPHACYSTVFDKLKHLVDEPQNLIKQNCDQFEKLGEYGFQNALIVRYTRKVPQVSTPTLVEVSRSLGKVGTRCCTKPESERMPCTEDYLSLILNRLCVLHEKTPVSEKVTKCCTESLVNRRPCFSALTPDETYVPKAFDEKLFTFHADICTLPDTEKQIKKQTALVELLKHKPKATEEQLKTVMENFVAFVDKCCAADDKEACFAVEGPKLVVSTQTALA

B1: Cys3-tagged anti-OjaMT single-chain fragment of variable region (scFv-Cys3) (scFv, V domains shown)
VH: EVQLQQSGAELVKPGASVKLSCKASGYTFTSYSMHWVKQRPGQGLEWIGEINPSNGRTNYNEKFKSKATLTVDKSSSTAYMQVSSLTSEDSAVYYCARRSSYWYFDVWGAGTTVTVSS
VL: DVLMTQTPASQSASLGESVTITCLASQTIGTWLAWYQQKPGKSPQLLIYAATSLADGVPSRFSGSGSGTKFSFKISSLQAEDFVSYYCQQLCNPPYTFGGRHQAGNQ
notes: VH of the anti-OjaMT hybridoma, 119 amino acids; (GGGGS)3 GS-linker, 15 amino acids; VL of the anti-OjaMT hybridoma, 107 amino acids; VH-linker-VL cloned NdeI/HindIII in pET-28a(+) (pJDH033); a GS-linker-Cys3 fragment was put into the HindIII/XhoI sites (pJDH043); also called anti-OjaMT scFv; recombinant scFv; not shown: GS-linker-Cys3, C-terminal, kept
For the molecule B1, the binding result was “no binding (tested: 30 μg/mL)”.

The values are drawn from publication PMC5948571, “Detection of Metallothionein in Javanese Medaka (Oryzias javanicus), Using a scFv-Immobilized Protein Chip” (Sensors (Basel, Switzerland), 2018).
